Results: the nanobody polyreactivity screen of Harvey et al. (2022)

Experiment: yeast display, Sf9 membrane polyspecificity reagent, FACS + sequencing; frameworks hold sequencing errors
In short: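 A synthetic nanobody library was expressed on Saccharomyces cerevisiae BJ5465 by galactose induction for 36–48 hours. The library was stained for 1 hour at 4 °C with 10% biotinylated, detergent-solubilized Sf9 membrane reagent and enriched with streptavidin microbeads before FACS. Low and high (top ~1%) gates were set on anti-HA fluorescence for expression and streptavidin fluorescence for reagent binding, and each polyreactivity label reflects the gate of origin.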

| Sequence | polyreactivity (PSR sort gate) |
| --- | --- |
| QVQLVESGGGLVQAGGSLRLSCAASGSIFKIYAMGWYRQAPGKERELVAAITINGGSTYYADSVKGRFTISRDNAKNTVYLLMNSLKPEDTAVYYCAADFFHRAGWYFAYGHWGQGTQVTVSS | low polyreactivity |
| QDQLVESGGGLVQAGGSLRLSCAASGRTFHRNAMGLYRQAPGKERELVAAITGTGGRTYYADSVKGRFTISRDNAKNTVYLQMNSLKPEDTEVYYCAARPWIKSGYWGQGTQVTVSW | high polyreactivity |
| QVQLVESGGGLVQAGGSLRLSCAASGRIFKRYAMGWYRQAPGKERELVAAITRSGTRTYYADSVKGRFTISRDNAKNTVYLQMNSLKPEDTAVYYCAAALGWYSAFGYWGQGTLVTVSS | high polyreactivity |
| QVQLVESGGGLFQAGGSLRLSCAASGRTFRVYAMGWYRQAPGKEREFVAAISYSGGRTNYADSVKGRFTISRDYAKNTVYLQKNSLKPEDTAVYYCAARYTWAEGDYWGQGTQVTVSS | low polyreactivity |
| QVQLVESGGGLVQAGGSLRLSCAASGGTFYVYDMGWYRQTPGKEREFVADINFSTGITYYADSVKGRFTISRDNAKNTVYLQMNSLKPEDTAVYYCNADTAFYVYWYWIYDYWGQGTQVTVSS | high polyreactivity |
| QVQLVESGGGLVQAGGSLRLSCAASGSIFSTYVMGWYRPAPGKERELVAAIRWRATSTFYADSVKGRFTISRDNAKNTVYLQMNSLKPEDTAVYYCNRYHRTSWRAKYDYWGQGTQVTVSS | high polyreactivity |
| QVQLVESGGGLVQAGGSLRLSCAASGLIFTSYAMGWYRQAPGKERELVAAISTGGGRTYYADSVKGRFTISRDNAKNTVYLQMNSLKPEDTAVYYCAADSVTYGYDYWGQGTQVTVSS | high polyreactivity |
| QVQLVESGGGLVQAGGSLRLICAASGFAFSYYAMGWYRQAPGKEREFVASIDWSGGSTYYADSVKGRFTISRDNEKNTVYLQMNSLKPEDTAVYYCAAELDYFPGYDYWGQGTQVTVSS | low polyreactivity |
| QVHLVESGGGLVQAGGSLRLSCAASGSIFNLYGMGWYRQAPGKERELVASITSSGTRTYYADSVKGRFTISRDNAKNTVYLQMNSLKPEDTAVYYCAAGSYLRSNRGYWGQGTQVTVSS | high polyreactivity |
| QVQLLESGGGLVQAGGSLRLSCAASRSTFPGYAMGWYRQAPGKETELVAAITWSGVTTYYADSVKGRFTISRDNAKYTVYLQMNSLKPEDTAVYYCATGTLYSDGAIYGYWGQGTQVTVSS | low polyreactivity |
| QVQLVESGGGFVQAGGSLRLSSAASGSTFYRYAMGWYRQAPGKEREFVAAISRSGGSTYYADSVKRRFTLSRDNAKNTVYLQMNSLKPEDTAVEYCNKYYWYPYGRAQDYGYWGQGTQVTVSS | high polyreactivity |
| QVQLVESGGGLVQAGGSLRLSCAASGIISGDYAMGWYRQAPGKERELVARITSGDSTNYADSVKGRFTISRDNAKNTVYLQMNSLKPEDTAVYYCAADRVWAYWTYGYWGQGTQVTVSS | low polyreactivity |
| QVQLVESGGGLVQAGGSLRLSCAASGSIFTRYAMGWYRQAPGKERELVAAISQSGGNTYYADSVKGRFTISRDNAKNTVYLQMNSLKPEDTAVYYCAARWPWTHTRGYWGQGTQVTVSS | high polyreactivity |
| QVQLVESGGGLVQAGGSLRLSCAASGFTFGFYAMGWYRQAPGKERELVATINYNGGSTYYADSVKGRFTISRDNAKNTVYLEMNSLKPEDTAVYYCATDYGWAPSYWYDSCGQGTQVTVSS | low polyreactivity |
| QVQLVESGAGIVQAGGSLRLSCAASGSTFGRYAMGLYTQAPGKERELVAAISASGGSTYYADSVKGRFTISRDNAKTTVYLQMNSLTPEDTAVYYCAKDRPQTRLWYYFIDDYDYRGQGTQVTVSS | high polyreactivity |
| QVQLVESGGGLVQAGGSVRLSCAASGFIISYYAMGWYRQAPGKERELFAAISWSGGSTYYADSVKGSFTISRDNAKNTVYLQMNSLKPEDTAVYYCAADFLYGAEGNDYWGQGTQVTVSS | high polyreactivity |

| Sequence | polyreactivity (PSR sort gate) |
| --- | --- |
| QVQVLESGGGLFQAGGRLRLSCAASGRTFRSYAMGWYRQAPGKERELVAAIRRGGSTNYADSVKGRFTISRDNAKNTVYLQMNSEKPEDTAVYYCAARGWSYRSVGYMDYWGQGTQVTVSS | high polyreactivity |
| QVQLVESGGGLVQAGGSLRLSCAASGNTFYYYCMGWYRQAPGKERELVAAISSSGTSTYYADSVKGRFTISRDNAKNTVYLQMNSLKPEDTAVYYCARRTDRRTGPMYSWGQGTQVTVSS | high polyreactivity |
| QVQLVESGGGLVQAGGSLRLSCAASGRIFGIYAMGWYRQAPGKESEFVAAISWRTGSTYYADSVKWRFTISRDNAKNTVYLQMNRLNPADTAVYYCAAESASKYGYWVQGTQVTVSS | high polyreactivity |
| QVQLVESGGGLVQAGGSLRISCAASGRTFARYAMGWYRQAPGKERELVAAISRSGSTYYADSVKGRFTISRDNAKNTVYLQMNSLKPEDTAVYFCAKDTRFAGSYKYYYWGQGTQVTVSS | high polyreactivity |
| QVQIVESGGGLVQAGGSLRLSCAASGGTFYVNDMGWYRQAPGKERELVATITYSGTSTYYADSVKGRFTISRDNAKNTVYLHMNSLKPEDTAVYYCATDVLLYFEPVNLEYWGQGTQVTVSS | low polyreactivity |
| QVQLVESGGGLVQAGGSLRLSCAASGRTFHYNAMGWYRQAPGKERELVAAISFNGGGTYYADSVKGRFTISRDNAKNTVYLQMNSLKPEDTAVYYCATDVPSRYDYWGQGTQVTVSS | low polyreactivity |
| QVQLVESGGGLVQAGGSLRLSCAASGIIFGNYAMGWYRQAPGKERELVAAITNGSSTNYADSVKGRFTISRDNAKNTVYLQMNSLKPEDTAVYYCARDGIGADGYDYWGQGTQVTVSS | low polyreactivity |
| QVQLVESGGGLVQAGGSLRLSCAASGFTFYTYAMGWYRQAPGKERELVAGISTRGGRTYYADSVKGRFTISRDNAKNTVYLQMNSLKPEDTAVYYCNAVDKTGKYDYWGQGTQVTVSS | high polyreactivity |
| QVQLVESGGGLVQAGGSLRLSCAASGLTFYYYAMGWYRQAPGKERELVAAITSGGITYYADSVKGRFTISRDNEKNTVYLQMNSLKPEDTAVYYCAARYHIDTLFYGSRYDYWGQGTQVTVSS | high polyreactivity |
| QVHLVESGGGLVQAGGSLRLSCAASGSTIDIYDMGWYRQAPGKERELVAAISIGTYADSVKGRFTISRDNAKNTVYLQMNSLKPEDTAVYYCAAQTDTWGYGYDYWGQGTQVTVSS | high polyreactivity |
| QVQLVESGGGLVQAGGSLRLSCAASGRIFDHNAMGWYRQAPGKERELVAAIDSGTSTNYADSVKGRFTISRDNAKNTVYLQMNSLKPEDTAVYYCARLLGPVRDKYDYDYWGQGTQVTVSS | low polyreactivity |
| QVQLLESGGGLVQAGGSLRLSCAASGFTFRVNAMGWYIQAPGKERELVAAISSGGSTNYADSVKGRFTISRDNAKNTVYLQMNSLKPEDTAVYYCAKRFKYIYFWGQGTQVTVSS | high polyreactivity |
| QVQLVDSGGGLVQAGGSLRLSSAASGRTFRYYTMGWYRQAPGKERELVAGISRSGANTYYADSVKGRFTISRDNAKNSVYLQMNSLKPEDTAVYYCNAVYGTYDWGQGTQVTVSS | high polyreactivity |
| QVQLVESGGGLVQAGGSLRLICAASGSIFGRYAMGWYRQAPGKETELVAAINDDSGRTYYADSVKGRFTISRDNAKNTVYLQMNSLKPEDTAVYYCAADGYVLWYSFDYWGQGTLVTVSS | high polyreactivity |
| QVQLVESGGGLVQAGGSLRLSCAASGFILYQNALGWYRQAPGKERELVAAITESDGITYYADSVKGRFTISRDNAKNTVYLQMNSLKPEDTAVYDCNTGFSYTYDYWGQGTQVTVSS | low polyreactivity |
| QVQLVESGGGLVQAGGRLRLSCAASGLIFYKYAMGWYRQAPGKERELVAAISSRTGSTSYADSVKGRFTISRDNAKNTVYLQMNSLKPEDTAVYYCAARPRYNEYGYWGQGTQVTVSS | high polyreactivity |
